Article PMC12751603 (Journal of Experimental & Clinical Cancer Research : CR, 2025)
Non-standard residues stand in square brackets, D forms with d. No end group written: not given here. pY = N[C@@H](Cc1ccc(OP(=O)(O)O)cc1)C(=O)O

Key:
GST-PTPN9 Y333A = target: T1, GST-PTPN9 Y333A (UniProt P43378 1-593, Y333A); assay: cell-based or functional assay
T1 sequence (looked up): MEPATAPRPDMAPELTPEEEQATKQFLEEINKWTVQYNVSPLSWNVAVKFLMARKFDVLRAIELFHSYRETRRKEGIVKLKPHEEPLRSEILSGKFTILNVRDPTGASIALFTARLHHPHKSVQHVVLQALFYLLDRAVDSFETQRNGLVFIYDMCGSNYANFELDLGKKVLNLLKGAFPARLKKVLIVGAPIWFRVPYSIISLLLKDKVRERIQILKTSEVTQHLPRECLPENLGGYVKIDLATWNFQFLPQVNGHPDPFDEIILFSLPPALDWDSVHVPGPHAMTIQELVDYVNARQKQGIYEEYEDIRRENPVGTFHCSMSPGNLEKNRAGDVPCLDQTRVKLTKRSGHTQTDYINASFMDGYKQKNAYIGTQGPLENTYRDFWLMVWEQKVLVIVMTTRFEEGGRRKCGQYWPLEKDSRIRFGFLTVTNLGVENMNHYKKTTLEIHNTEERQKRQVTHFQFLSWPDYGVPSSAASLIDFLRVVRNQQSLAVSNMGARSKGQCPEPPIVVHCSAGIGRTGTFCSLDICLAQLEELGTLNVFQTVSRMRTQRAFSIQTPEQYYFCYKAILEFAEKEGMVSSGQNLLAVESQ

GST-PTPN9 D335A = target: T2, GST-PTPN9 D335A (UniProt P43378 1-593, D335A); assay: cell-based or functional assay
T2 sequence (looked up): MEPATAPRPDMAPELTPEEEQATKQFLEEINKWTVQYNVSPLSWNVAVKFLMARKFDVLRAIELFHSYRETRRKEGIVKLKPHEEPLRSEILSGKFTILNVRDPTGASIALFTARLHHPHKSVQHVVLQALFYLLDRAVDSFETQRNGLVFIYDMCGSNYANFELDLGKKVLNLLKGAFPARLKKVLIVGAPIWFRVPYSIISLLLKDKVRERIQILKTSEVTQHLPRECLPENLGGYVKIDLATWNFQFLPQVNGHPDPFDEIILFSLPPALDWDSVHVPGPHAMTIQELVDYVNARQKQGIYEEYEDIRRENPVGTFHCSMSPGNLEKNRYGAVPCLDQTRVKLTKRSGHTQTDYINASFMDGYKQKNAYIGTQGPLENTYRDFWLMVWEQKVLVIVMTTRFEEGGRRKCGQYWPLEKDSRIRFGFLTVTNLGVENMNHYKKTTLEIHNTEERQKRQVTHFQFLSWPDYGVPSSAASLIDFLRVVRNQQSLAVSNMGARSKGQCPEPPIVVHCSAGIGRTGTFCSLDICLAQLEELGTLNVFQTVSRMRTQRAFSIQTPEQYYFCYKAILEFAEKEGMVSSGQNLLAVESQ

- Kcat of phosphatase activity against the p-IGF1R^Y1165/1166 peptide (GST-PTPN9 Y333A): 3.42 s⁻¹
- Kcat of phosphatase activity against the p-IGF1R^Y1165/1166 peptide (GST-PTPN9 D335A): 1.78 s⁻¹
Binder: IYETD[pY][pY]RKGGK [p-IGF1R^Y1165/1166 peptide]
